T1: activin A (UniProt P08476 311-426)
T1 construct: also called ActA
T1 sequence (looked up): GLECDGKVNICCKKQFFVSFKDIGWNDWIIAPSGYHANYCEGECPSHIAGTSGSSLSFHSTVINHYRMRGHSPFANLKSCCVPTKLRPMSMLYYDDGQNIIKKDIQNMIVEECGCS

T2: GDF11 (UniProt O95390 299-407)
T2 sequence (looked up): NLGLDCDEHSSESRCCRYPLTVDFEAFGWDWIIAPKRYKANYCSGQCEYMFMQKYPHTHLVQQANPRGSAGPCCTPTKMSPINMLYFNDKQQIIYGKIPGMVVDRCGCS

T3: GDF8 (UniProt O14793 267-375)
T3 construct: also called myostatin
T3 sequence (looked up): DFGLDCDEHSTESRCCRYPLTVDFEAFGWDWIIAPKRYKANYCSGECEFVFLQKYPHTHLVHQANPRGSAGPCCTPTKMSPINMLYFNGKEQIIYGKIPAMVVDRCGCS


Columns and labels:
activin A [1] = biological target: T1, activin A; assay: cell-based or functional assay
GDF11 [2] = biological target: T2, GDF11; assay: cell-based or functional assay
activin A [3] = biological target: T1, activin A; assay: Biacore; Fc fusion captured by anti-hFc antibody, ligand flowed
Description: (§1) Binding of certain ActRIIB-Fc proteins and ActRIIB variant Fc fusion polypeptides to ligands was tested in a Biacore™ assay.
(§2) The ActRIIB-Fc variants or wild-type protein were captured onto the system using an anti-hFc antibody. Ligands were injected and flowed over the captured receptor proteins.

GDF11 [4] = biological target: T2, GDF11; assay: as above
Description: as §1, §2

GDF8 = biological target: T3, GDF8; assay: as above
Description: as §1, §2

Activin Inhibition Activity (KI) (activin A [1]) [nM] | GDF11 Inhibition Activity (KI) (GDF11 [2]) [nM] | Kd (activin A [3]) [nM] | koff (activin A [3]) [s⁻¹] | kon (activin A [3]) [M⁻¹ s⁻¹] | Kd (GDF11 [4]) [nM] | koff (GDF11 [4]) [s⁻¹] | Kd (GDF8) [nM] | koff (GDF8) [s⁻¹] | Molecule
1000 | 1000 |  |  |  |  |  |  |  | ActRIIB-Fc A64 20-134 (Fc fusion)
 |  | 0.104 | 0.000346 | 3.34e+06 | 0.0519 | 6.35e-05 |  |  | ActRIIB(A24N 20-134)-hFc (Fc fusion, A24N creates an N-linked glycosylation sequence (N-E-T), paragraph 96, also called A24N variant) GRGENETRECIYYNANWELERTNQSGLERCEGEQDKRLHCYASWRNSSGTIELVKKGCWLDDFNCYDRQECVATEENPQVYFCCCEGNFCNERFTHLPEAGGPEVTYEPPPTAPTGGGTHTCPPCPAPELLGGPSVFLFPPKPKDTLMISRTPEVTCVVVDVSHEDPEVKFNWYVDGVEVHNAKTKPREEQYNSTYRVVSVLTVLHQDWLNGKEYKCKVSNKALPVPIEKTISKAKGQPREPQVYTLPPSREEMTKNQVSLTCLVKGFYPSDIAVEWESNGQPENNYKTTPPVLDSDGSFFLYSKLTVDKSRWQQGNVFSCSVMHEALHNHYTQKSLSLSPGK
 |  | 0.0841 | 0.000628 | 7.46e+06 |  |  | 2.15 | 0.000209 | ActRIIB(R64K 20-129)-hFc (Fc fusion) GRGEAETRECIYYNANWELERTNQSGLERCEGEQDKRLHCYASWKNSSGTIELVKKGCWLDDFNCYDRQECVATEENPQVYFCCCEGNFCNERFTHLPEAGGPEVTYEPPTGGGTHTCPPCPAPELLGGPSVFLFPPKPKDTLMISRTPEVTCVVVDVSHEDPEVKFNWYVDGVEVHNAKTKPREEQYNSTYRVVSVLTVLHQDWLNGKEYKCKVSNKALPVPIEKTISKAKGQPREPQVYTLPPSREEMTKNQVSLTCLVKGFYPSDIAVEWESNGQPENNYKTTPPVLDSDGSFFLYSKLTVDKSRWQQGNVFSCSVMHEALHNHYTQKSLSLSPGK

— US20240299493A1 (ACCELERON PHARMA, published 2024)
